{"source": "patent US20190248863A1", "about": "(published 2019)", "binders": {"B1": {"name": "RLX-A-AQ1-20KPEG (ligand)", "chain 1": "XLYSALANKCCHVGCTKRSLARFC", "chain 2": "ASWMEEVIKLCGRELVRAQIAICGMSTWS", "modifications": "para-acetylphenylalanine (pAcF, X) at position 1 of the A chain, linked to a 20 kDa PEG via an oxime linkage"}}, "test_in_all_cases": "cell-based or functional assay", "key": {"[1]": {"biological_target": "T1, human RXFP1 (human, UniProt Q9HBX9 1-757)", "T1 sequence (looked up)": "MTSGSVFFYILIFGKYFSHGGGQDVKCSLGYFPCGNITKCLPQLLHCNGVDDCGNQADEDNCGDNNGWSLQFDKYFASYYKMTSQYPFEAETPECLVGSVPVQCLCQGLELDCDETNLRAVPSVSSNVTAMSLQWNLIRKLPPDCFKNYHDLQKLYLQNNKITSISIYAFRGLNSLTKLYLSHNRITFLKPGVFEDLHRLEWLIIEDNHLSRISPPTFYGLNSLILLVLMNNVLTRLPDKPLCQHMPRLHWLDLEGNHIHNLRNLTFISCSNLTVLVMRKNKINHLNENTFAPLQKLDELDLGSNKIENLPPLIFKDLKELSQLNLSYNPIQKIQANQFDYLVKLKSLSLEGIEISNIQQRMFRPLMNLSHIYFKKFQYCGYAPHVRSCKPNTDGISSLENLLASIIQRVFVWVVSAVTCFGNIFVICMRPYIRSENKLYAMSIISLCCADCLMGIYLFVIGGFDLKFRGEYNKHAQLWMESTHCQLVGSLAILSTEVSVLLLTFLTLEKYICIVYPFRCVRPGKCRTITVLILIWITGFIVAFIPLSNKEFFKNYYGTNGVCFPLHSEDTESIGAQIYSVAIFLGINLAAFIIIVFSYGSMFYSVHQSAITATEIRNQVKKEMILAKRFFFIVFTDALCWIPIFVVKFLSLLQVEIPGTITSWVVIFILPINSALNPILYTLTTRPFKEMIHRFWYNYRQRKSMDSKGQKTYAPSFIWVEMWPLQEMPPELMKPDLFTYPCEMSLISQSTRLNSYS"}, "[2]": {"biological_target": "T2, cynomolgus monkey RXFP1 (cynomolgus monkey, UniProt H9ERA2 1-757 (rhesus entry))", "T2 sequence": "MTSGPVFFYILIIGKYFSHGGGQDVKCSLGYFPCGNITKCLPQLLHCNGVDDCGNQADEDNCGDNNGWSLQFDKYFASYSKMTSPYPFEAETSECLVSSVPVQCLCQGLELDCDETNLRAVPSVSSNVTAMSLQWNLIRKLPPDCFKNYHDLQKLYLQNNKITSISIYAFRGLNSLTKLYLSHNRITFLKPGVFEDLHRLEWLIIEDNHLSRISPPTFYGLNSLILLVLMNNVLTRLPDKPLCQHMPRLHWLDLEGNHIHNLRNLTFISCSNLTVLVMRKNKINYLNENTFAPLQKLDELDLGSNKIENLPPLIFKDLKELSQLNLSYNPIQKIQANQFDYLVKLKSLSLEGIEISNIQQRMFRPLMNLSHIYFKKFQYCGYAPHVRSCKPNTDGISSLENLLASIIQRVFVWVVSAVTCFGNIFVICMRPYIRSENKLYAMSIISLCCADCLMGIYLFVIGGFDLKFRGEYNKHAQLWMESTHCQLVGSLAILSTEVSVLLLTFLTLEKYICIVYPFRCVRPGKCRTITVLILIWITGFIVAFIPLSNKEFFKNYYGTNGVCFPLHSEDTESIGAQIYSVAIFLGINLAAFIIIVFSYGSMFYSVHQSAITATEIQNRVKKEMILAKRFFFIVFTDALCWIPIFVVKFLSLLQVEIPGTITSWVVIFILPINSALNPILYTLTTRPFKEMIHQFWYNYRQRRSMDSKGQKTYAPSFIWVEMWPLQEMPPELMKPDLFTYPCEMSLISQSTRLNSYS"}, "[3]": {"biological_target": "dog RXFP1 (dog)"}, "[4]": {"biological_target": "T3, rat RXFP1 (rat, UniProt Q6R6I6 1-758)", "T3 sequence (looked up)": "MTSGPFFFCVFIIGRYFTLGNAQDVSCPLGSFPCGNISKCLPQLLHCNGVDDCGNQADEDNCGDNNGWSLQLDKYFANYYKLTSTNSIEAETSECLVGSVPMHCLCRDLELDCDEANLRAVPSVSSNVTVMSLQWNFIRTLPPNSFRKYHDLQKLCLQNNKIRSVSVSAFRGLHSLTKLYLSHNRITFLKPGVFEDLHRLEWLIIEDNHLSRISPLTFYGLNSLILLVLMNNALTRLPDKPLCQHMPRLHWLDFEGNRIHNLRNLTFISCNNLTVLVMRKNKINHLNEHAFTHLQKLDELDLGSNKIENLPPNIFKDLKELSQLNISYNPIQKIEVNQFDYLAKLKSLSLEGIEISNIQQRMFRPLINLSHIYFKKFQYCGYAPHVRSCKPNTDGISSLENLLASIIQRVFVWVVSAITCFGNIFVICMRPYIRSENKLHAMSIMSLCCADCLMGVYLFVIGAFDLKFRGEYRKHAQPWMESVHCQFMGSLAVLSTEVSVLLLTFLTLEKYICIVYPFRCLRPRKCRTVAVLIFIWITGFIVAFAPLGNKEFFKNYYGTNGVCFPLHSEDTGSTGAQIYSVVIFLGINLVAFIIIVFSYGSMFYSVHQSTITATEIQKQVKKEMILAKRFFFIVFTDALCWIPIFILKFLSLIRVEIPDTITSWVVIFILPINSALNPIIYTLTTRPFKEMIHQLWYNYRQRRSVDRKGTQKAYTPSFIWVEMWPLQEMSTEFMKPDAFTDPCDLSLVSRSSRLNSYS"}, "[5]": {"biological_target": "T4, mouse RXFP1 (mouse, UniProt Q6R6I7 1-758)", "T4 sequence (looked up)": "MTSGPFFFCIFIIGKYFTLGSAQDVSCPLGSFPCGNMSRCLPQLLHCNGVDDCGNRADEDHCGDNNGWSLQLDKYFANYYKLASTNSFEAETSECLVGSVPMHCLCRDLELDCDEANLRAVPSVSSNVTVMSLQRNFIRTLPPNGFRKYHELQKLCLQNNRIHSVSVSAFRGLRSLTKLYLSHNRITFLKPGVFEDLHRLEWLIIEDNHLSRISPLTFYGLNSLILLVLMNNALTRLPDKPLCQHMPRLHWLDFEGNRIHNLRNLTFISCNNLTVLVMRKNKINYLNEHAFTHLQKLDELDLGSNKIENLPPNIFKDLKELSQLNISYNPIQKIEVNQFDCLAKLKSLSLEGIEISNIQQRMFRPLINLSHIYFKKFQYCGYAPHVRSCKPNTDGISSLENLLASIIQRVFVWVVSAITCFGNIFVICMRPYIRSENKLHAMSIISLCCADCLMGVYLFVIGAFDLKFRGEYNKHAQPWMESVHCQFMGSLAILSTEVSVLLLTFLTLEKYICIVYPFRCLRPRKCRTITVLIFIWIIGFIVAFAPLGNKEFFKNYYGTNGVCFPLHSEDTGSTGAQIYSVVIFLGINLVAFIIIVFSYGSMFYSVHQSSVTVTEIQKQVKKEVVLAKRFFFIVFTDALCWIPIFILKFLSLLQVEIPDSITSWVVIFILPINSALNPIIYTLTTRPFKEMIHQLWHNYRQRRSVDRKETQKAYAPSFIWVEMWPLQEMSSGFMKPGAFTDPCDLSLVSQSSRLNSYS"}}, "data": [{"binder": "B1", "values": [{"measurement": "RLX-A-AQ1-20KPEG Potency Ratio (hRXFP1-1.0), cAMP assay", "setting": "[1]", "value": 1, "unit": "fold"}, {"measurement": "RLX-A-AQ1-20KPEG Potency Ratio (hRXFP1-1.0), cAMP assay", "setting": "[2]", "value": 1.6, "unit": "fold"}, {"measurement": "RLX-A-AQ1-20KPEG Potency Ratio (hRXFP1-1.0), cAMP assay", "setting": "[3]", "value": 4.7, "unit": "fold"}, {"measurement": "RLX-A-AQ1-20KPEG Potency Ratio (hRXFP1-1.0), cAMP assay", "setting": "[4]", "value": 0.34, "unit": "fold"}, {"measurement": "RLX-A-AQ1-20KPEG Potency Ratio (hRXFP1-1.0), cAMP assay", "setting": "[5]", "value": 0.66, "unit": "fold"}]}]}
